The values below come from publication PMC5770445.

In one assay the target is His-LpxA (C. sakazakii) (UniProt A7MI18).
Assay [1] concerns the target Labp V94A expressed from pKT25 (C. sakazakii). In words: two-hybrid; bacterial adenylate cyclase-based two-hybrid (BACTH) in E. coli BTH101, pKT25 and pUT18C fusions, β-galactosidase activity in Miller units.

Molecule “His-CSK29544_02616 (His×6-tagged CSK29544_02616 product, Labp) (natural protein)” registered a LpxA enzymatic activity: fluorescence of ThioGlo-ACP conjugates (RFU) with UDP-GlcNAc and R-3-hydroxymyristoyl-ACP; 10 nM LpxA with 300 nM His-CSK29544 02616 against LpxA alone with His-LpxA (C. sakazakii) of 2 fold.

B1: LpxA expressed from pUT18C (enzyme)
chain: MIDKTAFIHPTAIVEEGAVIGANAHIGPFCIVGPDVKIGEGTVLKSHVVVNGHTTIGRDNEIYQFASIGEVNQDLKYAGEPTRVEIGDRNRIRESVTIHRGTAQGGGLTKVGSDNLLMINAHVAHDCTVGNRCILANNATLAGHVSVDDFAIIGGMTAVHQFCIIGAHVMVGGCSGVAQDVPPYVIAQGNHATPFGVNIEGLKRRGFSKEALHAIRNAYKLLYRSGKTLDEVKPEIAEIAAKHPEVQPFYDFFARSTRGLIR
In turn, B1 displayed a fold reduction in ß-galactosidase activity compared to intact Labp in assay [1] of 4 fold.
